The values that follow come from PMC4319893 (PLoS ONE, 2015).

The target in this assay is T1, SAP-97 PDZ1-2-3 (human, UniProt Q12959 220-554).
T1 construct: human SAP-97, residues 220-554; Synthetic DNA in a modified pRSET vector; source: E. coli BL21(DE3)pLysS, purified (His-Trap IMAC, MonoQ ion exchange)
As to the kind of experiment: fluorescence polarisation; competition against the monomeric CRIPT probe; 50 mM TRIS, 100 mM NaCl, 1 mM EDTA, 1 mM DTT; Ki calculated according to Nikolovska-Coleska et al. Particulars: both partners purified.

T1 sequence (Q12959 220-554): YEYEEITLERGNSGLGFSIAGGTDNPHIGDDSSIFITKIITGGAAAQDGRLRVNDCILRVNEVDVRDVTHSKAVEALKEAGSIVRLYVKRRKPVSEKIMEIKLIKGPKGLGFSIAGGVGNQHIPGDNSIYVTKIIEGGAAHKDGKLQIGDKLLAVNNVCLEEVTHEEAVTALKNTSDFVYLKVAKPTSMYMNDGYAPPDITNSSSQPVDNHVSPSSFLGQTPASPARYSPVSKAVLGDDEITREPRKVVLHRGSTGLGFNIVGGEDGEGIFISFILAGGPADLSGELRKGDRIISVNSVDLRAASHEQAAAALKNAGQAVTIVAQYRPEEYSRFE

B1: CRIPT-06 (1) (peptide)
peptide: YKQTSV
notes: C-terminal hexapeptide of CRIPT; also called CRIPT hexapeptide; YKQTSV; source: synthetic peptide
For B1, the Ki is 1 µM.

The Ki is a dissociation constant, usually derived from enzyme kinetics or from competition with a known ligand.
